B1: 3xSP25k thin film (3x rcSso7d.SA-PNIPAM conjugate, PNIPAM Mn 24.9 kDa) (designed binder)
chain: MGSSHHHHHHSSGLVPRGSHMCATVKFTYQGEEKQVDISKIKIVARDGQYIDFKYDEGGGAYGYGWVSEKDAPKELLQMLEKQGGGGSGGGGSMATVKFTYQGEEKQVDISKIKIVARDGQYIDFKYDEGGGAYGYGWVSEKDAPKELLQMLEKQGGGGSGGGGSMATVKFTYQGEEKQVDISKIKIVARDGQYIDFKYDEGGGAYGYGWVSEKDAPKELLQMLEKQGG
modifications: maleimide end-functionalized PNIPAM (Mn 24.9 kDa) on the N-terminal Cys; film lightly crosslinked with glutaraldehyde
notes: Three rcSso7d.SA repeats joined by (G4S)2 linkers in one chain; also called conjugate of the trimer
B2: 4xSP25k thin film (4x rcSso7d.SA-PNIPAM conjugate, 25 kDa PNIPAM) (designed binder)
chain: MGSSHHHHHHSSGLVPRGSHMCATVKFTYQGEEKQVDISKIKIVARDGQYIDFKYDEGGGAYGYGWVSEKDAPKELLQMLEKQGGGGSGGGGSMATVKFTYQGEEKQVDISKIKIVARDGQYIDFKYDEGGGAYGYGWVSEKDAPKELLQMLEKQGGGGSGGGGSMATVKFTYQGEEKQVDISKIKIVARDGQYIDFKYDEGGGAYGYGWVSEKDAPKELLQMLEKQGGGGSGGGGSMATVKFTYQGEEKQVDISKIKIVARDGQYIDFKYDESGGAYGYGWVSEKDAPKELLQMLEKQ
modifications: maleimide end-functionalized PNIPAM (25 kDa) on the N-terminal Cys; film lightly crosslinked with glutaraldehyde
notes: Four rcSso7d.SA repeats joined by (G4S)2 linkers in one chain

What was measured:
[1] = target: monomeric streptavidin variant mSA2; test: fluorescent binding assay, labeled mSA2 in PBS on thin film; quadratic curve fit
Description: (§1) The binding function of rcSso7d.SA oligomer-PNIPAM thin films was measured using fluorescently-labeled monomeric streptavidin (mSA2) and fluorescently-labeled streptavidin (SA). Details for the expression, purification, and fluorescent labeling of mSA2 are provided below. Samples were prepared by serial dilution of SA or mSA2 in PBS (pH 7.4), human urine (diluted to 50% v/v in PBS, pH 7.4), or blood serum (obtained as the supernatant by centrifuging whole blood at 1500×g for 10 minutes, then diluted to 50% v/v in PBS, pH 7.4). 0.5 μL drops of solutions containing serially diluted fluorescent mSA2 and fluorescent SA samples in PBS (pH 7.4) were gently applied to the surface of each bioconjugate thin film. Films were incubated in a sealed chamber saturated with water vapor at room temperature to prevent to prevent drying of the applied fluorescent samples. After 1 hour, films were thoroughly rinsed with water for 10 seconds (a time determined to be sufficient to remove unbound molecules from the film, see FIG. 33, dried under filtered airflow, and immediately analyzed for fluorescent signal. Fluorescence microscopy images were acquired at 4× magnification using a Cy5 filter set and exposure time of 5000 ms on an Olympus IX-81 inverted fluorescence microscope with an AxioCam HRC CCD camera. Fluorescent intensity was calculated using ImageJ software⁶⁷ by determining the average fluorescent signal in a rectangular area of the fluorescent image free of defects and occupying no less than half of the full sample application area.
Binding assays were performed by adding serially diluted solutions of fluorescently-labeled mSA2 to thin films of each studied conjugate (FIG. 6A). To maintain consistent transport properties between samples, each oligomer was conjugated to the same previously-synthesized 25 kDa PNIPAM sample. Analyte bound to thin films was quantified using fluorescence microscopy, and binding curves were fit to the collected mean fluorescent intensity (MFI) data using the following equation: […]

[2] = target: monomeric streptavidin variant mSA2; test: fluorescent binding assay, labeled mSA2; signal three standard deviations above blank
Description: as §1
Oligomerization of rcSso7d.SA also brings about a decrease in biosensor limit of detection (LOD). […] While all thin films display improvements up to threefold in LOD over the monolayer, the trend in LOD with respect to degree of oligomerization is non-monotonic. The primary factor that is expected to affect LOD in the studied biosensors is number of binding sites, as more binding sites enable a greater number of analyte molecules to be captured and shifts analyte-receptor equilibrium in favor of binding events.

[3] = target: monomeric streptavidin variant mSA2; test: fluorescent binding assay, labeled mSA2 on thin film
Description: as §1, with “Films were incubated in a sealed chamber saturated with water vapor at room temperature to prevent to prevent drying of the applied fluorescent samples.” left out, “area. […]” for “area.”

[4] = target: monomeric streptavidin variant mSA2; test: calculated from [P]T of the mSA2 binding curve fit and film thickness; design: Calculated Density (density of binding sites within a cross-sectional area of the film): unit not given here
Description: To determine the density of binding proteins within a single plane of each thin film, the concentration of accessible binding sites throughout the entire film—taken directly from the binding assay curve fits (Table 4)—was multiplied by the corresponding film thickness. When accounting for differences in film thickness, the density of oligomerized rcSso7d.SA proteins capable of binding mSA2 is found to increase […] with degree of oligomerization (Table 5). This calculated density decreases, though, between the 1×SP25k and 2×SP25k thin films, indicating a lower density of accessible binding sites in the protein domains of the oligomerized rcSso7d.SA conjugate film. The total number of predicted binding sites within each thin film assuming complete accessibility should be proportional to the […] of rcSso7d. SA in the conjugate with PNIPAM. Reasonable estimates for relative values of the predicted number of sites can thus be obtained by normalizing the weight fraction of rcSso7d. SA in each conjugate by the corresponding weight fraction in 1×SP25k. Comparing these predicted relative number of binding sites to the calculated values (FIG. 6C), all oligomeric rcSso7d.SA conjugates are found to contain fewer proteins capable of binding mSA2 than predicted. It is likely that this effect results from a combination of steric blocking of binding sites by bound mSA2 molecules as well as a lack of the free volume required to incorporate mSA2 molecules into the protein nanodomains at high degrees of binding. Despite the lower than expected binding capacity of the conjugate thin films, these biosensors contain approximately […] the quantity of accessible binding sites compared to rcSso7d.SA monolayers on a volumetric basis (Table 4). Recognizing that each plane (and a monolayer) of rcSso7d.SA proteins is roughly 1-2 nm thick,⁸⁰ the studied thin films can be determined to contain approximately 100 more planes of protein than a monolayer.

[5] = target: T1, streptavidin (UniProt P22629 37-163, limits assumed); test: fluorescent binding assay: Alexa Fluor 647-labeled streptavidin applied to the thin film; the sheet names the film 4xSP25k, the legend 4xSP30k
T1 construct: It was used without a stated label in the sandwich assays; also called SA
Description: as §1, with “Films were incubated in a sealed chamber saturated with water vapor at room temperature to prevent to prevent drying of the applied fluorescent samples.” left out

T1 sequence (P22629 37-163 limits assumed): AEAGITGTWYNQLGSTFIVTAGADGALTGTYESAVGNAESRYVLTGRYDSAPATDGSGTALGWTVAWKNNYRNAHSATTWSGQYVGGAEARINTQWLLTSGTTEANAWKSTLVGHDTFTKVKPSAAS

Row | Binder | [P]T (total concentration of accessible binding sites) [1] [µM] | limit of detection (LOD) [2] [nM] | fluorescent signal relative to rcSso7d.SA monolayer [3] [fold] | Calculated Density (density of binding sites within a cross-sectional area of the film) [4] | Calculated Ratio (film thickness x [P]T relative to the 1xSP25k thin film) [4] | binding result [5]
1 | B1 | 3.9 | 110 | > 10 | 59 | 1.24 | 
2 | B2 | 3.7 | 140 |  | 62 | 1.31 | binds
